Here are results for nine molecules from publication PMC9876794 (2022).

Sequences and labels used below:
B1: D180 (antibody, V domains shown)
VH: EVQLVESGGGLVQPGGTLRLSCEASGFAFSTFWMTWVRQAPGKGLEWVANIKQDGSEKYYVDSVKGRFTISRDNAKNSLYLQMNSLRAEDTAVYYCASRSIVVAGTDYWGQGTLVTVSS
VL: not shown
B2: D153 (antibody, V domains shown)
VH: QVQLVQSGAEVKKPGASVKVSCKASGYTFTSYGISWVRQAPGQGLEWMGWISAYNGNTNYAQKLQGRVTMTTDTSTSTAYMELRSLRSDDTAVYYCARDFNDFWSGYWGYWGQGTLVTVSS
VL: QSALTQPPSASGSPGQSVTISCTGTSSDVGGYNYVSWYQQHPGKAPKLMIYEVSKRPSGVPDRFSGSKSGNTASLTVSGLQAEDEADYYCSSYAGSNNLVFGGGTKLTVL
B3: D179 (antibody, V domains shown)
VH: EVQLVESGGGLVQPGRSLRLSCAASGFTFDDYAMHWVRQAPGKGLEWVSGISWNSGSIGYADSVKGRFTISRDNAKNSLYLQMNSLRAEDTALYYCAKGQIVGATSSDYGMDVWGQGTTVTVSS
VL: DIQMTQSPSSVSASVGDRVTITCRASQGISSWLAWYQQKPGKAPKLLIYAASSLQSGVPSRFSGSGSGTDFTLTISSLQPEDFATYYCQQANSFPYTFGQGTKLEIK
B4: C2713 (antibody, V domains shown)
VH: QVQLVQSGAEVKKPGASVKVSCKASGYTFTSYYMHWVRQAPGQGLEWMGIINPSGGSTSYAQKFQGRVTMTRDTSTSTVYMELRSLRSEDTAVYYCARDRSSNYGMDVWGQGTTVTVSS
VL: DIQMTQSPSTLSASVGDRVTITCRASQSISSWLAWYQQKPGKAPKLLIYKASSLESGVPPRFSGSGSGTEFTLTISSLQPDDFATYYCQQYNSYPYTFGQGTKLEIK
B5: D185 (antibody, V domains shown)
VH: QVQLVQSGAEVKKPGSSVKVSCKASGGTFSSYAISWVRQAPGQGLEWMGGIIPIFGTANYAQKFQGRVTITADKSTSTAYMELSSLRSEDTAVYYCARAQQQLVQHGGYGMDVWGQGTTVTVSS
VL: QSVLTQPPSVSGAPGQRVTISCTGSSSNIGAGYDVHWYQQLPGTAPKLLIYGNSNRPSGVPDRFSGSKSGTSASLAITGLQAEDEADYYCQSYDSSLSAVVFGGGTKLTVL
B6: D156 (antibody, V domains shown)
VH: EVQLLESGGGLAQPGGSLRLSCAASGFTFSSYAMSWVRQAPGKGLEWVSAISGSGGTYYADFVKGRFTISRDDSKNTLYLQINSLRAEDTAIYYCAKDGYGSGNYKLRYLELWGRGTLVTVSS
VL: QSVLTQPASVSGSPGQSITISCTGTSSDVGGYNYVSWYQQHPGKAPKFMIYDVSKRPSGVSNRFSGSKSGNTASLTISGLQAEDEADYYCFSYAGSLVFGGGTKLTVL
B7: D123 (antibody, V domains shown)
VH: EVQLVESGGGLVQPGRSLRLSCAASGFIFDDYAMHWVRQVPGKGLEWVSGISWNGGIIGQADSVKGRFTISRDNAKNSLYLQMNNLRAEDTALYFCTKDVGPGSPNYFDSWGQGTLVTVSS
VL: DIQMTQSPSTLSASVGDRVTITCRASQSISSWLAWYQQKPGKAPKFLIYKTSNLENGVPSRFSGSGSGTEFTLTISSLQPDDFATYFCQEYITNSRTFGQGTRLEIK
B8: D170 (antibody, V domains shown)
VH: QVQLVQSGAEVKKPGSSVKVSCKASGGTFSSYAISWVRQAPGQGLEWMGGIIPIFGTANYAQKFQGRVTITADESTSTAYMELSSLRSEDTAVYYCAREGGYCSGGSCSHYFDAFDIWGQGTMVTVSS
VL: QSALTQPASVSGSPGQSITISCTGTSSDVGSYNLVSWYQQHPGKAPKLMIYEGSKRPSGVSNRFSGSKSGNTASLTISGLQAEDEADYYCCSYAGSSTFWVFGGGTKLTVL
B9: D176 (antibody, V domains shown)
VH: QVQLVQSGAEVKKPGASVKVSCKASGYTFTSYDINWVRQATGQGLEWMGWMNPNSGNTGYAQKFQGRVTITRNTSISTAYMELSSLRSEDTAVYYCARGGSLMDVWGKGTTVTVSS
VL: QFVLTQPASVSGSPGQSITISCTGTSSDVGGYNYVSWYQQHPGKAPKLMIYDVSKRPSGVSNRFSGSKSGNTASLTISGLQAEDEADYYCSSYTSSSTFEVFGGGTKLTVL

This test deals with SARS-CoV-2 spike RBD (WT) (Severe acute respiratory syndrome …, UniProt P0DTC2). The experiment in a line: ELISA. Also noted: unit not given here. For orientation: ELISA stands for enzyme-linked immunosorbent assay.
In turn, B1 gave a binding score of 8900.

For the molecule B2, the binding score is greater than 10000.

In the case of B3, the binding score came to 8900.

B4 had a binding score of 4560.

In turn, B5 displayed a binding score greater than 10000.

On to B6, for which the binding score was greater than 10000.

The molecule B7 showed a binding score of 7780.

Consider B8, for which the binding score amounted to 3050.

As to B9, the binding score came to 1430.
